Molecular target: CD22 (human) (UniProt P20273)
Test: cell-based or functional assay

Substance	IC50 (nM), XTT viability, RL cells, 72 h [nM]	IC50 (nM), XTT viability, Ramos cells, 72 h [nM]
Anti-CD22 mAb-LL37-MMAE8 (Inotuzumab ADC with LL37) (antibody)	0.235	0.035
Anti-CD22 mAb-MMAE8 (Inotuzumab ADC) (antibody)	0.26	0.04
